B1: Regulator of nonsense transcripts 2 (Homo sapiens), Q9HAU5 (parent)
chain: MPAERKKPASMEEKDSLPNNKEKDCSERRTVSSKERPKDDIKLTAKKEVSKAPEDKKKRLEDDKRKKEDKERKKKDEEKVKAEEESKKKEEEEKKKHQEEERKKQEEQAKRQQEEEAAAQMKEKEESIQLHQEAWERHHLRKELRSKNQNAPDSRPEENFFSRLDSSLKKNTAFVKKLKTITEQQRDSLSHDFNGLNLSKYIAEAVASIVEAKLKISDVNCAVHLCSLFHQRYADFAPSLLQVWKKHFEARKEEKTPNITKLRTDLRFIAELTIVGIFTDKEGLSLIYEQLKNIINADRESHTHVSVVISFCRHCGDDIAGLVPRKVKSAAEKFNLSFPPSEIISPEKQQPFQNLLKEYFTSLTKHLKRDHRELQNTERQNRRILHSKGELSEDRHKQYEEFAMSYQKLLANSQSLADLLDENMPDLPQDKPTPEEHGPGIDIFTPGKPGEYDLEGGIWEDEDARNFYENLIDLKAFVPAILFKDNEKSCQNKESNKDDTKEAKESKENKEVSSPDDLELELENLEINDDTLELEGGDEAEDLTKKLLDEQEQEDEEASTGSHLKLIVDAFLQQLPNCVNRDLIDKAAMDFCMNMNTKANRKKLVRALFIVPRQRLDLLPFYARLVATLHPCMSDVAEDLCSMLRGDFRFHVRKKDQINIETKNKTVRFIGELTKFKMFTKNDTLHCLKMLLSDFSHHHIEMACTLLETCGRFLFRSPESHLRTSVLLEQMMRKKQAMHLDARYVTMVENAYYYCNPPPAEKTVKKKRPPLQEYVRKLLYKDLSKVTTEKVLRQMRKLPWQDQEVKDYVICCMINIWNVKYNSIHCVANLLAGLVLYQEDVGIHVVDGVLEDIRLGMEVNQPKFNQRRISSAKFLGELYNYRMVESAVIFRTLYSFTSFGVNPDGSPSSLDPPEHLFRIRLVCTILDTCGQYFDRGSSKRKLDCFLVYFQRYVWWKKSLEVWTKDHPFPIDIDYMISDTLELLRPKIKLCNSLEESIRQVQDLEREFLIKLGLVNDKDSKDSMTEGENLEEDEEEEEGGAETEEQSGNESEVNEPEEEEGSDNDDDEGEEEEEENTDYLTDSNKENETDEENTEVMIKGGGLKHVPCVEDEDFIQALDKMMLENLQQRSGESVKVHQLDVAIPLHLKSQLRKGPPLGGGEGEAESADTMPFVMLTRKGNKQQFKILNVPMSSQLAANHWNQQQAEQEERMRMKKLTLDINERQEQEDYQEMLQSLAQRPAPANTNRERRPRYQHPKGAPNADLIFKTGGRRR
partner: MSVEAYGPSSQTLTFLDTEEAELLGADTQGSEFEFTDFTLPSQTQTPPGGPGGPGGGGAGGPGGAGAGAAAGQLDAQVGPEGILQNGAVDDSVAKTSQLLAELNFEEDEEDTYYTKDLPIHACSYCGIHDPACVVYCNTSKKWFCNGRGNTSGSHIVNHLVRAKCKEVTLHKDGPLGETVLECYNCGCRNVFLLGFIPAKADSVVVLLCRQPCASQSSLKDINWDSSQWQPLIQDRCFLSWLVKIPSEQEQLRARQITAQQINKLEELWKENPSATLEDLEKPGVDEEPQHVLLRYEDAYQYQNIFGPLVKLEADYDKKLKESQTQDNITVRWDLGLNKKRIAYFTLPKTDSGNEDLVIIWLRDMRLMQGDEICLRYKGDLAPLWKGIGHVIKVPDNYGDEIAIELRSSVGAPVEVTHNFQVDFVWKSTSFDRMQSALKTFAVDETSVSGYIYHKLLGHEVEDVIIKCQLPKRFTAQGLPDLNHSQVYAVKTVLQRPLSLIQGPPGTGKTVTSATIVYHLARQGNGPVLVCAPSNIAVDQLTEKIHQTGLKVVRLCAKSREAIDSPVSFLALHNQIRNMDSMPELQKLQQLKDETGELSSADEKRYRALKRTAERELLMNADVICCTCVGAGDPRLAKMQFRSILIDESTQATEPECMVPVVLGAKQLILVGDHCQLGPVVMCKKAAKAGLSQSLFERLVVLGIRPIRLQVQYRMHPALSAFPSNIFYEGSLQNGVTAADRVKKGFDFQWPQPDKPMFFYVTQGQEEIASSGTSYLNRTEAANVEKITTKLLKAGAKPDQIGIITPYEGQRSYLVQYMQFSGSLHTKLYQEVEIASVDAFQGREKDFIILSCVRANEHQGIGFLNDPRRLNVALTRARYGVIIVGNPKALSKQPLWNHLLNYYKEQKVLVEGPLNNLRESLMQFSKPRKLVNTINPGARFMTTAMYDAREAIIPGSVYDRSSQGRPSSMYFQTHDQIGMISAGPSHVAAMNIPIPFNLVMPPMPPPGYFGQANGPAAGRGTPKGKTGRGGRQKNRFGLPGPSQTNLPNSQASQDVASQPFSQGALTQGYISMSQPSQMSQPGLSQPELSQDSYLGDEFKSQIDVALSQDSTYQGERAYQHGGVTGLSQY

Variants of: B1
Settings: with rent1_human UPF1, Q92900

Variant | effect of a mutation on the interaction
M1173E | disrupting interaction

Variants of: B1
Settings: with rent1_human UPF1, Q92900
Remark: another data set of the same source

Variant | effect of a mutation on the interaction
F1113E | disrupting interaction

Variants of: B1
Settings: with rent1_human UPF1, Q92900
Remark: another data set of the same source

Variant | effect of a mutation on the interaction
M1120E | decreasing interaction

Variants of: B1
Settings: with rent1_human UPF1, Q92900
Remark: another data set of the same source

Variant | effect of a mutation on the interaction
M1169E | decreasing interaction

Variants of: B1
Settings: with rent1_human UPF1, Q92900
Remark: another data set of the same source

Variant | effect of a mutation on the interaction
R1176E | decreasing interaction

Variants of: B1
Settings: with rent1_human UPF1, Q92900
Remark: another data set of the same source

Variant | effect of a mutation on the interaction
F1171E | disrupting interaction

Variants of: B1
Settings: with rent1_human UPF1, Q92900
Remark: another data set of the same source

Variant | effect of a mutation on the interaction
E1123R | decreasing interaction

Variants of: B1
Settings: with rent1_human UPF1, Q92900
Remark: another data set of the same source

Variant | effect of a mutation on the interaction
M1121E | decreasing interaction

Variants of: B1
Settings: with rent1_human UPF1, Q92900
Remark: another data set of the same source

Variant | effect of a mutation on the interaction
L1174E | disrupting interaction

Source: IntAct's records for PubMed 19556969
